Non-standard residues stand in square brackets, D forms with d. Groups on a side chain read outwards from the residue. *: point of attachment. 5FAM = O=C1OC2(c3ccc(O)cc3Oc3cc(O)ccc32)c2ccc(C(=O)*)cc21
B1: Rad51 (S208E; A209D) (enzyme)
chain: MAMQMQLEANADTSVEEESFGPQPISRLEQCGINANDVKKLEEAGFHTVEAVAYAPKKELINIKGISEAKADKILAEAAKLVPMGFTTATEFHQRRSEIIQITTGSKELDKLLQGGIETGSITEMFGEFRTGKTQICHTLAVTCQLPIDRGGGEGKAMYIDTEGTFRPERLLAVAERYGLSGSDVLDNVAYARAFNTDHQTQLLYQAEDMMVESRYALLIVDSATALYRTDYSGRGELSARQMHLARFLRMLLRLADEFGVAVVITNQVVAQVDGAAMFAADPKKPIGGNIIAHASTTRLYLRKGRGETRICKIYDSPCLPEAEAMFAINADGVGDAKD
notes: Human RAD51 mutant tested by Y2H; also called human RAD51 S208E A209D
B2: Rad51 (Q202R, Y205D, Q206A) (enzyme)
chain: MAMQMQLEANADTSVEEESFGPQPISRLEQCGINANDVKKLEEAGFHTVEAVAYAPKKELINIKGISEAKADKILAEAAKLVPMGFTTATEFHQRRSEIIQITTGSKELDKLLQGGIETGSITEMFGEFRTGKTQICHTLAVTCQLPIDRGGGEGKAMYIDTEGTFRPERLLAVAERYGLSGSDVLDNVAYARAFNTDHQTRLLDAASAMMVESRYALLIVDSATALYRTDYSGRGELSARQMHLARFLRMLLRLADEFGVAVVITNQVVAQVDGAAMFAADPKKPIGGNIIAHASTTRLYLRKGRGETRICKIYDSPCLPEAEAMFAINADGVGDAKD
notes: Human RAD51 mutant tested by Y2H; also called human RAD51 Q202R Y205D Q206A
B3: Rad51 (S208L; A209E; M210A) (enzyme)
chain: MAMQMQLEANADTSVEEESFGPQPISRLEQCGINANDVKKLEEAGFHTVEAVAYAPKKELINIKGISEAKADKILAEAAKLVPMGFTTATEFHQRRSEIIQITTGSKELDKLLQGGIETGSITEMFGEFRTGKTQICHTLAVTCQLPIDRGGGEGKAMYIDTEGTFRPERLLAVAERYGLSGSDVLDNVAYARAFNTDHQTQLLYQALEAMVESRYALLIVDSATALYRTDYSGRGELSARQMHLARFLRMLLRLADEFGVAVVITNQVVAQVDGAAMFAADPKKPIGGNIIAHASTTRLYLRKGRGETRICKIYDSPCLPEAEAMFAINADGVGDAKD
notes: Human RAD51 mutant tested by Y2H; also called human RAD51 S208L A209E M210A
B4: Rad51 (A190L; A192L) (enzyme)
chain: MAMQMQLEANADTSVEEESFGPQPISRLEQCGINANDVKKLEEAGFHTVEAVAYAPKKELINIKGISEAKADKILAEAAKLVPMGFTTATEFHQRRSEIIQITTGSKELDKLLQGGIETGSITEMFGEFRTGKTQICHTLAVTCQLPIDRGGGEGKAMYIDTEGTFRPERLLAVAERYGLSGSDVLDNVLYLRAFNTDHQTQLLYQASAMMVESRYALLIVDSATALYRTDYSGRGELSARQMHLARFLRMLLRLADEFGVAVVITNQVVAQVDGAAMFAADPKKPIGGNIIAHASTTRLYLRKGRGETRICKIYDSPCLPEAEAMFAINADGVGDAKD
notes: Human RAD51 mutant tested by Y2H; also called human RAD51 A190L A192L
B5: Rad51 (F86E; A89E) (enzyme)
chain: MAMQMQLEANADTSVEEESFGPQPISRLEQCGINANDVKKLEEAGFHTVEAVAYAPKKELINIKGISEAKADKILAEAAKLVPMGETTETEFHQRRSEIIQITTGSKELDKLLQGGIETGSITEMFGEFRTGKTQICHTLAVTCQLPIDRGGGEGKAMYIDTEGTFRPERLLAVAERYGLSGSDVLDNVAYARAFNTDHQTQLLYQASAMMVESRYALLIVDSATALYRTDYSGRGELSARQMHLARFLRMLLRLADEFGVAVVITNQVVAQVDGAAMFAADPKKPIGGNIIAHASTTRLYLRKGRGETRICKIYDSPCLPEAEAMFAINADGVGDAKD
notes: Human RAD51 mutant tested by Y2H; also called human RAD51 F86E A89E

Key:
H. sapiens Rad51 = molecular target: T1, H. sapiens Rad51 (H. sapiens, UniProt Q06609 1-339); assay: yeast two-hybrid, human RAD51 mutant
T1 construct: Expressed in yeast as a two-hybrid fusion; also called human RAD51
T1 sequence: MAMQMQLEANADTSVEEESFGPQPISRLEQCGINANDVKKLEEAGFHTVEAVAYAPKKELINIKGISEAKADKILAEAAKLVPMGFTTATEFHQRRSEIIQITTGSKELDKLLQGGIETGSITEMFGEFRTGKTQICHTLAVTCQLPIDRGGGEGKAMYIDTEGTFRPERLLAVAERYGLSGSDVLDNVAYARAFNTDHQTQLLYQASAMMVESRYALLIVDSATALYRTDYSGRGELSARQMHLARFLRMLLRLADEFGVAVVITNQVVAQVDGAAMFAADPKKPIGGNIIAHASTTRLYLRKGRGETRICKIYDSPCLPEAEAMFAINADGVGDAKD
Description: (§1) The ability of peptides to bind human RAD51 with various mutations was then tested by Y2H assay. […] While mutations affecting BRCA2 binding had no effect on peptide binding, mutations that affected RAD51-AP1 binding did disrupt peptide binding. As these mutations were at residues 202, 205, and 206, they were consistent with the previous fusion data showing binding somewhere in the 190-218 region, and indicated the peptide SEQ ID NO.:5 contacts at least residues 202, 205, and 206 of RAD51.

Rad51 (F86E; A89E) = molecular target: B5; assay: yeast two-hybrid, human RAD51 mutant
Description: as §1

Rad51 (A190L; A192L) = molecular target: B4; assay: yeast two-hybrid, human RAD51 mutant
Description: as §1

[1] = molecular target: B3; assay: yeast two-hybrid, human RAD51 mutant
Description: as §1

Rad51 (S208E; A209D) = molecular target: B1; assay: yeast two-hybrid, human RAD51 mutant
Description: as §1

[2] = molecular target: B2; assay: yeast two-hybrid, human RAD51 mutant
Description: as §1

[3] = molecular target: T2, Rad51, fluorescently labelled (microscale thermophoresis) (UniProt Q06609 1-339, limits assumed, fluorescently labelled according to the manufacturer's protocol (site not stated)); assay: microscale thermophoresis, 1 mM Ca2+ against no Ca2+
T2 construct: Purified labelled protein at about 500 nM; The buffer contained 0.5 mM ATP and 2.5 uM ssDNA
T2 sequence (looked up): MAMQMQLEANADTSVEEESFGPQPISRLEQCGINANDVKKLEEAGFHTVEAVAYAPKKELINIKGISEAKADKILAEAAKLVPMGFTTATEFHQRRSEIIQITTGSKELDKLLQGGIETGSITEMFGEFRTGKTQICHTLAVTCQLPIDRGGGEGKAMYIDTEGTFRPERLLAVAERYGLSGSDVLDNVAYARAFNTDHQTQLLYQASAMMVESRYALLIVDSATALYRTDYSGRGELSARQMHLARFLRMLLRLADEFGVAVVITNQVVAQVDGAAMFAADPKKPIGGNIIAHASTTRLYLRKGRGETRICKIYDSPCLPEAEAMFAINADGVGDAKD
Description: (§2) Microscale thermophoresis was performed as previously described (see, for e.g. Jerabek-Willemsen, M., Wienken, C. J., Braun, D., Baaske, P. & Duhr, S. Molecular interaction studies using microscale thermophoresis. Assay Drug Dev. Technol. 9, 342-353 (2011)). The affinity of the Compound was measured using the Monolith NT.115 from Nanotemper Technologies. Rad51 was fluorescently labelled according to the manufacturer's protocol and the labelled protein used for each assay was about 500 nM. A solution of unlabelled peptide was diluted for appropriate serial concentration gradient. The samples were loaded into silica capillaries (Polymicro Technologies). Measurements were performed at room temperature in buffer containing PBS, 0.1% Tween 20, 0.5 mM ATP, 2.5 uM ssDNA, with 1 mM CaCl2 (when mentioned). Measurements were done using 12% LED power and 60% MST power. The assays were repeated three times for each affinity measurement. Data analyses were performed using Nanotemper Analysis software and OriginPro 8.0 software provided by the manufacturer.

[4] = molecular target: T2, Rad51, fluorescently labelled …; assay: microscale thermophoresis, labelled Rad51 about 500 nM, PBS
Description: as §2

[5] = molecular target: T2, Rad51, fluorescently labelled …; assay: microscale thermophoresis, labelled Rad51 about 500 nM, PBS + 1 mM Ca2+
Description: as §2

Binder: B1
- binding result (H. sapiens Rad51): binds

Binder: B2
- binding result (H. sapiens Rad51): binds

Binder: B3
- binding result (H. sapiens Rad51): no binding

Binder: B4
- binding result (H. sapiens Rad51): no binding

Binder: B5
- binding result (H. sapiens Rad51): no binding

Binder: KEPTLLGFHTASGKKVKIAKESLDKVKNLFDEKEQ (Y2H fusion in yeast) [residues 1517-1551 of human BRCA2 used as Y2H bait]
- binding result (Rad51 (F86E; A89E)): binds
- binding result (Rad51 (A190L; A192L)): no binding
- binding result [1]: no binding
- binding result (Rad51 (S208E; A209D)): no binding
- binding result [2]: binds

Binder: Ac-K([C6-5FAM])RRRRRRRKRLGVRLRVSRML-NH2 (also called active peptide 5) [Compound 5, Ac-K(C6_5FAM)-RRRRRRRKRLGVRLRVSRML-NH2]
- fold increase of Kd (calcium raised from 0 to 1 mM) [3]: 3.4 fold
- Kd [4]: 8.37 nM
- Kd [5]: 28.9 nM

Binder: Ac-[dL][dM][dR][dS][dV][dR][dL][dR][dV]G[dL][dR][dK][dR][dR][dR][dR][dR][dR][dR]-NH2 [Compound 10, Ac-lmrsvrlrvGlrkrrrrrrr-NH2]
- Kd [4]: 8.55 nM

Source: US20170368132A1 (published 2017)
